Assay [1] deals with T1, ectodomain of murine βKlotho (F53 to L995 of SEQ ID NO: 218) with a C-terminal FLAG tag (murine, UniProt Q99N32 53-995).
T1 construct: Expressed in HEK293 cells and purified from culture media; also called βKlotho ectodomain; not shown: C-terminal FLAG tag
T1 sequence: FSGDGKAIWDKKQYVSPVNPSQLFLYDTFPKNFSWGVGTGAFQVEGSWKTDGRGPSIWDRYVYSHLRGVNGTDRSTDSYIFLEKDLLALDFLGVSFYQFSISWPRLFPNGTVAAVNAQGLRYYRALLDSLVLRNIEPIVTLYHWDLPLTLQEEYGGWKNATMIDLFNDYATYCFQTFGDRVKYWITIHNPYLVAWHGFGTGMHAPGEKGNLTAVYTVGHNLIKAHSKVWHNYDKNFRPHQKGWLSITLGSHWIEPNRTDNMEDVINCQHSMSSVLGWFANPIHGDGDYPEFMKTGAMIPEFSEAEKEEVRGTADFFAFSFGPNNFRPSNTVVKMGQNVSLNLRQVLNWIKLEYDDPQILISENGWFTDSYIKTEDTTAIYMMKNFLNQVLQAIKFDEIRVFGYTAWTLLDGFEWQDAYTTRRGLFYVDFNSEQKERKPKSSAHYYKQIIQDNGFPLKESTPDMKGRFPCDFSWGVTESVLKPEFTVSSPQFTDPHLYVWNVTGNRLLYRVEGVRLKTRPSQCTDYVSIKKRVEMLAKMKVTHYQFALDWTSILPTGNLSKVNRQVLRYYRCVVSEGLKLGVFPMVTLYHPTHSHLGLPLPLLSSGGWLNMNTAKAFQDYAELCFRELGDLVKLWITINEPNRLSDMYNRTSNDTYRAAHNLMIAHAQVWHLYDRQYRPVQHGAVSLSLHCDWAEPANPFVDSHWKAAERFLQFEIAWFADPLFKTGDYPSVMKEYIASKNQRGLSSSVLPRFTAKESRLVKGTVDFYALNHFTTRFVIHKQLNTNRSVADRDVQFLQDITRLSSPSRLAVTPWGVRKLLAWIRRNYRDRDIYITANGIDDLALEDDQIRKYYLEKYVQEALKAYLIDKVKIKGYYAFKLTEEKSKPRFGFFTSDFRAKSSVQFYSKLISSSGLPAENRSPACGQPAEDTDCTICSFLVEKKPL
Put plainly: SPR; βKlotho ectodomain immobilized, FGFR ligand-binding domain as analyte (FIG. 3B). How it is done: FIGS. 3A-3G show the FGFR binding specificity profile of βKlotho. […] Where binding was observed, the dissociation constant (KD) was calculated from the saturation binding curve. The data shown in FIGS. 3A-G are representative of two to five independent experiments.
SPR experiments were performed on a Biacore 2000 instrument (Biacore AB), and all the protein-protein and protein-peptide interactions were studied at 25° C. in HBS-EP buffer (10 mM HEPES-NaOH, pH 7.4, 150 mM NaCl, 3 mM EDTA, 0.005% (v/v) polysorbate 20). Proteins were immobilized by amine coupling on flow channels of research grade CM5 chips (Biacore AB). Proteins were injected over a CM5 chip at a flow rate of 50 μl min⁻¹, and at the end of each protein injection (180 s), HBS-EP buffer (50 μl min⁻¹) was flowed over the chip to monitor dissociation for 180 s. In experiments where βKlotho binding to FGFR was analyzed, the chip surface was then regenerated by injecting 50 μl of 2.0 M NaCl in 10 mM sodium/potassium phosphate, pH 6.5. In experiments where α/βKlotho binding to FGF19/21/23 or binding of the FGFR1c-βKlotho complex to FGF21 was studied, 2.0 M NaCl in 10 mM sodium acetate, pH 4.5 was used for chip regeneration. To control for nonspecific binding in experiments where the ectodomain of αKlotho or βKlotho was immobilized on the chip, β-glucuronidase was coupled to the control flow channel of the chip (˜43-68 fmol/mm²).
In general terms: In SPR one partner is held on a chip, and binding of the other changes the refractive index at the surface.

The target of assay [2] is T1, ectodomain of murine βKlotho (F53 to …). Description: SPR; FGF23 immobilized, increasing concentrations of βKlotho ectodomain passed over the chip (FIG. 4C). An excerpt:
FGF19 was immobilized on a biosensor chip, and increasing concentrations of βKlotho ectodomain were passed over the chip. […] FGF21 was immobilized on a biosensor chip, and increasing concentrations of βKlotho ectodomain were passed over the chip. Note that for any given concentration of βKlotho, the binding response is greater on the FGF19 chip surface than on the FGF21 chip surface. Also note that the FGF19-βKlotho complex dissociates more slowly than the FGF21-βKlotho complex (compare the dissociation phases of the sensorgrams shown in (A) and (B)). […] FGF23 was immobilized on a biosensor chip, and increasing concentrations of βKlotho ectodomain were passed over the chip. […] FGF19 was immobilized on a biosensor chip, and increasing concentrations of αKlotho ectodomain were passed over the chip. […] FGF21 was immobilized on a biosensor chip, and increasing concentrations of αKlotho ectodomain were passed over the chip. […]
SPR experiments were performed on a Biacore 2000 instrument (Biacore AB), and all the protein-protein and protein-peptide interactions were studied at 25° C. in HBS-EP buffer (10 mM HEPES-NaOH, pH 7.4, 150 mM NaCl, 3 mM EDTA, 0.005% (v/v) polysorbate 20). […] In experiments where βKlotho binding to FGFR was analyzed, the chip surface was then regenerated by injecting 50 μl of 2.0 M NaCl in 10 mM sodium/potassium phosphate, pH 6.5.

The target in assay [3] is T2, 1:1 binary complex of FGFR1c ligand-binding domain and βKlotho ectodomain (human; murine, UniProt P11362 142-365; Q99N32 53-995).
T2 construct: also called FGFR1c-βKlotho complex; FGFR1c-βKlotho; not shown: C-terminal FLAG tag
T2 sequence 1: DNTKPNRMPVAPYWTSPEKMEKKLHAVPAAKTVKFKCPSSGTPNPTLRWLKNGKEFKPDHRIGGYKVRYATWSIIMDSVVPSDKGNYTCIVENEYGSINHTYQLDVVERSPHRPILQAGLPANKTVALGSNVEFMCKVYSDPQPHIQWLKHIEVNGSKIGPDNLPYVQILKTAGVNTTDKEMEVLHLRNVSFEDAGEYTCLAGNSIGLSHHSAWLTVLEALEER
T2 sequence 2: T1 sequence
Description: SPR competition; FGF21 immobilized, FGFR1c-βKlotho complex mixed with an equimolar amount of the chimera (FIG. 15F). The method, then: To examine whether mutants of FGF21 or chimeras composed of a N-terminal portion of FGF21 and a C-terminal portion of FGF19 can compete with wild-type ligand for binding to the FGFR1c-βKlotho complex, FGF21 was immobilized on a chip (˜30 fmol/mm² of flow channel). Increasing concentrations of FGF21 mutant or chimera (0-60 nM) were mixed with a fixed concentration of 1:1 complex of FGFR1c ligand-binding domain and βKlotho ectodomain (10 nM), and the mixtures were passed over the chip. As a control, competition of FGF21 in solution with immobilized FGF21 for binding to the FGFR1c-βKlotho complex was studied. The results are shown in FIGS. 14A to 14D and 15A to 15F.
A competition binding assay was selected over a direct binding assay because its binding data are not confounded by the effects that the coupling of one binding partner to the chip might have. Specifically, it was examined whether a mutant or chimera can compete with native FGF21 for binding to the FGFR1c-βKlotho complex. […] FGF21 was immobilized on a biosensor chip, and mixtures of a fixed concentration of FGFR1c-βKlotho complex with increasing concentrations of either FGF21 mutant or FGF21/FGF19 chimera were passed over the chip. As a control, competition of FGF21 in solution with immobilized FGF21 for binding to the FGFR1c-βKlotho complex was studied.

B1: ligand-binding domain of human FGFR2c (N149 to E368 of SEQ ID NO: 226) (receptor)
chain: NNKRAPYWTNTEKMEKRLHAVPAANTVKFRCPAGGNPMPTMRWLKNGKEFKQEHRIGGYKVRNQHWSLIMESVVPSDKGNYTCVVENEYGSINHTYHLDVVERSPHRPILQAGLPANASTVVGGDVEFVCKVYSDAQPHIQWIKHVEKNGSKYGPDGLPYLKVLKAAGVNTTDKEIEVLYIRNVTFEDAGEYTCLAGNSIGISFHSAWLTVLPAPGREKE
On to B1, for which the binding result in assay [1] was “binds”.

B2: human FGF23, secreted bioactive form (Y25 to I251 of SEQ ID NO: 223) with arginines 176 and 179 replaced with glutamine (ligand)
chain: YPNASPLLGSSWGGLIHLYTATARNSYHLQIHKNGHVDGAPHQTIYSALMIRSEDAGFVVITGVMSRRYLCMDFRGNIFGSHYFDPENCRFQHQTLENGYDVYHSPQYHFLVSLGRAKRAFLPGMNPPPYSQFLSRRNEIPLIHFNTPIPRQHTQSAEDDSERDPLNVLKPRARMTPAPASCSQELPSAEDNSPMASDPLGVVRGGRVNTHAGGTGPEGCRPFAKFI
notes: The cleavage site was mutated to minimize proteolysis; Used as specificity control on the SPR chip
For B2, in assay [2], the binding result was “no binding”.

B3: FGF21^29-197/FGF19^204-216 chimera (H29 to V197 of human FGF21 and T204 to K216 of human FGF19; SEQ ID NO: 205) (ligand)
chain: HPIPDSSPLLQFGGQVRQRYLYTDDAQQTEAHLEIREDGTVGGAADQSPESLLQLKALKPGVIQILGVKTSRFLCQRPDGALYGSLHFDPEACSFRELLLEDGYNVYQSEAHGLPLHLPGNKSPHRDPAPRGPARFLPLPGLPPALPEPPGILAPQPPDVGSSDPLSMVTGLEAVRSPSFEK
notes: Chimera of human FGF21 and human FGF19, purified from E. coli inclusion bodies; also called FGF21^C-tail variant 19-41; printed once as FGF21^29-97/FGF19^204-216
Consider B3, for which, in assay [3], the “percent inhibition of FGFR1c-βKlotho binding to immobilized FGF21 at an equimolar ratio of chimera to complex” value is at most 75%.

Source of the values: patent US20130231277A1 (NEW YORK UNIVERSITY, published 2013).
